Measured values: patent US20150064134A1

Experiments:
Test in all cases: cell-based or functional assay
PKA(h) (human) = PKA(h) (human) (UniProt P17612)
CLK3(h) (human) = CLK3(h) (human) (UniProt P49761)
PTK5(h) (human) = PTK5(h) (human) (UniProt P42685)
EphA5(h) (human) = molecular target: T1, EphA5(h) (human) (UniProt P54756)
T1 sequence (looked up): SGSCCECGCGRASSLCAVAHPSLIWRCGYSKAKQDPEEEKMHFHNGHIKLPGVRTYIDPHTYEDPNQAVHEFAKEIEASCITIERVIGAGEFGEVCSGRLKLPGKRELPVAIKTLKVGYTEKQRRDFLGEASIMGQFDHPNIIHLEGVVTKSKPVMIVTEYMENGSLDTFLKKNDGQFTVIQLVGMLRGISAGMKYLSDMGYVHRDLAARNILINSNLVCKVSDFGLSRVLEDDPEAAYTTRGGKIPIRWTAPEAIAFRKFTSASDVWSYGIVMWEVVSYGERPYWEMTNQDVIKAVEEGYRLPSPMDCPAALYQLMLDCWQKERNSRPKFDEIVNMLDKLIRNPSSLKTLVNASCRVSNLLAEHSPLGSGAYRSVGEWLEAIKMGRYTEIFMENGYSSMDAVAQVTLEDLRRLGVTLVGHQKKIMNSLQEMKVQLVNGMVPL

ROCK-II(h) (human) = ROCK-II(h) (human) (UniProt O75116)
MKK6(h) (human) = MKK6(h) (human) (UniProt P52564)
CDK6/cyclinD3(h) (human) = CDK6/cyclinD3(h) (human) (UniProt Q00534)
Sequence of CDK6/cyclinD3(h) (human) (Q00534 whole entry, chain 1 of 2): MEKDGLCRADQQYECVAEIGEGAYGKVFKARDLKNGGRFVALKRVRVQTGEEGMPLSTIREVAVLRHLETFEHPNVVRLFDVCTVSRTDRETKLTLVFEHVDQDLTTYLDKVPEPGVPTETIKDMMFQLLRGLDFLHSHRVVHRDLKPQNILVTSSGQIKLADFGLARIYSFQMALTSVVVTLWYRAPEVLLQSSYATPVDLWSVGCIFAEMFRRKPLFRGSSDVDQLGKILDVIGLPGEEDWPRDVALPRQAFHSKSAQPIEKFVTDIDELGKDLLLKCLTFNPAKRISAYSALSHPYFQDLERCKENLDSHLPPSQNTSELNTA
Sequence of CDK6/cyclinD3(h) (human) (P30281 whole entry, chain 2 of 2, further chain): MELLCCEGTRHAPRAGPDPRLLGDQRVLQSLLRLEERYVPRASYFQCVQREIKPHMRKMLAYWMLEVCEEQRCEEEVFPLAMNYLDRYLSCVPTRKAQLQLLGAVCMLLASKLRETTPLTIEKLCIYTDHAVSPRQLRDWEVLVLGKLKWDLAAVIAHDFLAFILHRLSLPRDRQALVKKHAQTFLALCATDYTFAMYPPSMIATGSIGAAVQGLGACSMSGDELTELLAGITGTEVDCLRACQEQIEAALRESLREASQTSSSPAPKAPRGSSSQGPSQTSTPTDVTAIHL

DCAMKL2(h) (human) = molecular target: T2, DCAMKL2(h) (human) (UniProt Q8N568)
T2 sequence (looked up): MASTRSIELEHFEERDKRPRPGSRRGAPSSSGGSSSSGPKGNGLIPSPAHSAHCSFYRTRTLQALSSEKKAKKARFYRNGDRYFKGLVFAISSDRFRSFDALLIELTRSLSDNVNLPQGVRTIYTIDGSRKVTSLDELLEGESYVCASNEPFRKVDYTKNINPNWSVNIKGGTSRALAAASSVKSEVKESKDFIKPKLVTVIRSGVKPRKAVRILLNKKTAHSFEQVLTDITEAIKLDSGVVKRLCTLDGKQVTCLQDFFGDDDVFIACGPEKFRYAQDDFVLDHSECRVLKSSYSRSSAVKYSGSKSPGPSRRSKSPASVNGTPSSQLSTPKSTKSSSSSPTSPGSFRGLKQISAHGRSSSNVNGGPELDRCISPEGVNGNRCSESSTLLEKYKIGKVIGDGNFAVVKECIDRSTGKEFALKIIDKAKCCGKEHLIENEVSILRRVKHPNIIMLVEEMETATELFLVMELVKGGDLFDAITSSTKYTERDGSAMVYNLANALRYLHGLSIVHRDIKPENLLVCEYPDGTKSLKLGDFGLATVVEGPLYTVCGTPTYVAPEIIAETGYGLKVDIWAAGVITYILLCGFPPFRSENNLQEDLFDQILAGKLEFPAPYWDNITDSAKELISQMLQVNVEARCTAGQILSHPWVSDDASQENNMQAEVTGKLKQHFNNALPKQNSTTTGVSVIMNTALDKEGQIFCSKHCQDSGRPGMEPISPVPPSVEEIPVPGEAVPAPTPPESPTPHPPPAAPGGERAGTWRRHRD

JNK3(h) (human) = JNK3(h) (human) (UniProt P53779)
Lyn(h) (human) = Lyn(h) (human) (UniProt P07948)
LOK(h) (human) = LOK(h) (human) (UniProt O94804)
cKit(D816V)(h) (human) = cKit(D816V)(h) (human) (UniProt P10721)
Sequence of cKit(D816V)(h) (human) (P10721 544-976 D816V): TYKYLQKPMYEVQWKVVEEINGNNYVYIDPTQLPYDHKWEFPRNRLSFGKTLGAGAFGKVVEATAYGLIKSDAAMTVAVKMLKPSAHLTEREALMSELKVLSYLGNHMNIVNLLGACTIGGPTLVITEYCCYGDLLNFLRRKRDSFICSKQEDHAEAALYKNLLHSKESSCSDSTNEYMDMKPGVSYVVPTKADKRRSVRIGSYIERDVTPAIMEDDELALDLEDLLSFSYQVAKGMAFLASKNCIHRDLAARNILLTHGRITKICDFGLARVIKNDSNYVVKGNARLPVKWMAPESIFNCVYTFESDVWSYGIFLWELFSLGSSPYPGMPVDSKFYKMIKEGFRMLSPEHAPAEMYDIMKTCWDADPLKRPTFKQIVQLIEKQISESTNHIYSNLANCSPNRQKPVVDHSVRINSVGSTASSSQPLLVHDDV

Fms(h) (human) = molecular target: T3, Fms(h) (human) (UniProt P07333)
T3 sequence (looked up): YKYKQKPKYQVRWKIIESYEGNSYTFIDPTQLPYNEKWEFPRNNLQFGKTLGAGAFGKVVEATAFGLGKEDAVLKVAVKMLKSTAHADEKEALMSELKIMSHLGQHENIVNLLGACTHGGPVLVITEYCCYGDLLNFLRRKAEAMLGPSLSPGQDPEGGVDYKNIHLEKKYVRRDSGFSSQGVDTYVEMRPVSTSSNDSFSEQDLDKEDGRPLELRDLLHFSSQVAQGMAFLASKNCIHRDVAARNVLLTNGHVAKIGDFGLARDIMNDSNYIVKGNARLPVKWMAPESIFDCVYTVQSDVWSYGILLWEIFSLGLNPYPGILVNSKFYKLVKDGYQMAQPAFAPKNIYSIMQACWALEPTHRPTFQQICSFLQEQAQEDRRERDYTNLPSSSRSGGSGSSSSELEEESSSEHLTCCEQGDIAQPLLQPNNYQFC

PKCδ(h) (human) = PKCδ(h) (human) (UniProt Q05655)
eEF-2K(h) (human) = molecular target: T4, eEF-2K(h) (human) (UniProt O00418)
T4 sequence (looked up): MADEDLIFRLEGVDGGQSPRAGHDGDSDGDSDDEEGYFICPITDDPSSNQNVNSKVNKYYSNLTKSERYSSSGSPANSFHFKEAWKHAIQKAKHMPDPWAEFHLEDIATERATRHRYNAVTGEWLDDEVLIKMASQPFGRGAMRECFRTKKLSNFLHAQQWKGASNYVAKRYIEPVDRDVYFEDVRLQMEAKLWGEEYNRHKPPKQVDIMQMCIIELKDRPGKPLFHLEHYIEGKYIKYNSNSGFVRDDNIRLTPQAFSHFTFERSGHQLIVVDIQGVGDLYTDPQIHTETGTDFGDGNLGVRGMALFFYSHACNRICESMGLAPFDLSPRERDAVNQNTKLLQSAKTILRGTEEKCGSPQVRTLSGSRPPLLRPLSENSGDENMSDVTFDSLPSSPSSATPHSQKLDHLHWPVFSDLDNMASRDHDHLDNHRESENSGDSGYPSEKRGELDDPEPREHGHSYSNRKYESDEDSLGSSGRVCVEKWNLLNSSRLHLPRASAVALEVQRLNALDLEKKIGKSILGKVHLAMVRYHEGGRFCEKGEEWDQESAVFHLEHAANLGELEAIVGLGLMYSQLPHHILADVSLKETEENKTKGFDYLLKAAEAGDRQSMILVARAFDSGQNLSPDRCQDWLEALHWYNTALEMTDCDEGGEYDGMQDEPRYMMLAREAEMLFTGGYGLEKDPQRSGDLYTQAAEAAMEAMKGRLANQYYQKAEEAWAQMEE

Tie2(h) (human) = Tie2(h) (human) (UniProt Q02763)
Sequence of Tie2(h) (human) (Q02763 771-1124 limits assumed): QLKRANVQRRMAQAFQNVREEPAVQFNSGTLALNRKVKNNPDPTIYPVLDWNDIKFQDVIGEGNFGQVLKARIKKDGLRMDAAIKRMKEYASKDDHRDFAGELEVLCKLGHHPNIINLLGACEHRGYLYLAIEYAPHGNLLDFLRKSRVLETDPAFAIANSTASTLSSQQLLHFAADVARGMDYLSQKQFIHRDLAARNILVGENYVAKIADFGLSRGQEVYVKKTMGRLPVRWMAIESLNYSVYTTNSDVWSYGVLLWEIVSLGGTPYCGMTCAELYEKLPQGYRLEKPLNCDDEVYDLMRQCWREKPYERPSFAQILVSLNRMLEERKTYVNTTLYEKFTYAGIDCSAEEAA

Sequence of PTK5(h) (human) (P42685 whole entry): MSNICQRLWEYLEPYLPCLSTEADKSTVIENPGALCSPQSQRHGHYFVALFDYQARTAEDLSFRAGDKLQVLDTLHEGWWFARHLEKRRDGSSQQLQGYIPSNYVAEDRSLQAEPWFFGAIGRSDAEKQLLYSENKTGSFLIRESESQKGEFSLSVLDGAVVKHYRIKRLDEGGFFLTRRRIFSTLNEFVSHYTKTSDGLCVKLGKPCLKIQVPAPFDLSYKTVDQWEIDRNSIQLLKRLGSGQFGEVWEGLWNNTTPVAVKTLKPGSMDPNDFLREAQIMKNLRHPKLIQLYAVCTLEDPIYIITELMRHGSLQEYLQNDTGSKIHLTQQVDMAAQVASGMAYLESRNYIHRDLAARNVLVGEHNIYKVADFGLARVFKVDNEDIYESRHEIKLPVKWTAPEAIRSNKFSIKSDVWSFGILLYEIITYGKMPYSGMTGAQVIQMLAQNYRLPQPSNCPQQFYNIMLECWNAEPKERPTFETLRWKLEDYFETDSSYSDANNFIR

Row | Substance | % activity at 100 µM (PKA(h) (human)) | % activity at 100 µM (CLK3(h) (human)) | % activity at 100 µM (PTK5(h) (human)) | % activity at 100 µM (EphA5(h) (human)) | % activity at 100 µM (ROCK-II(h) (human)) | % activity at 100 µM (MKK6(h) (human)) | % activity at 100 µM (CDK6/cyclinD3(h) (human)) | % activity at 100 µM (DCAMKL2(h) (human)) | % activity at 100 µM (JNK3(h) (human)) | % activity at 100 µM (Lyn(h) (human)) | % activity at 100 µM (LOK(h) (human)) | % activity at 100 µM (cKit(D816V)(h) (human)) | % activity at 100 µM (Fms(h) (human)) | % activity at 100 µM (PKCδ(h) (human)) | % activity at 100 µM (eEF-2K(h) (human)) | % activity at 100 µM (Tie2(h) (human))
1 | MMI-0300 (peptide) | 119% | 61% | 132% | 18% | 74% | 48% | 86% | 81% | 89% | 69% | 37% | 60% | 45% | 101% | 91% | 26%
2 | MMI-0400 (peptide) | 119% | 84% | 129% | 24% | 77% | 44% | 85% | 70% | 70% | 3% | 18% | 35% | 37% | 90% | 43% | 21%
3 | MMI-0500 (peptide) | 118% | 76% | 96% | 42% | 2% | 18% | 23% | 56% | 171% | 31% | 7% | 30% | 14% | 61% | 43% | 22%
